Experimental findings from publication PMC7155755, “Binding of the Human 14-3-3 Isoforms to Distinct Sites in the Leucine-Rich Repeat Kinase 2” (Frontiers in Neuroscience, 2020) are described below.

One test has as its target 14-3-3β (UniProt P31946). The test can be described thus: fluorescence polarization direct binding. Particulars: reference: unphosphorylated T2524 peptide; sites T2524. In general terms: In fluorescence polarisation assays a small probe gives low polarisation when free and higher when bound to something large.
The target in another test is 14-3-3γ (UniProt P61981). Briefly: fluorescence polarization direct binding. The conditions noted are these: reference: unphosphorylated T2524 peptide; sites T2524.
A further test deals with 14-3-3ε (UniProt P62258). The test can be described thus: fluorescence polarization direct binding. Particulars: reference: unphosphorylated T2524 peptide; sites T2524.
The target in a further test is 14-3-3ζ (UniProt P63104). The test can be described thus: fluorescence polarization direct binding. The conditions noted are these: reference: unphosphorylated T2524 peptide; sites T2524.
In the next test the target is 14-3-3η (UniProt Q04917). Briefly: fluorescence polarization direct binding. The conditions noted are these: reference: unphosphorylated T2524 peptide; sites T2524.
In the next test the target is 14-3-3θ (UniProt P27348). The test can be described thus: fluorescence polarization direct binding. Particulars: reference: unphosphorylated T2524 peptide; sites T2524.
In another test the target is 14-3-3σ (UniProt P31947). The test can be described thus: fluorescence polarization direct binding. The conditions noted are these: reference: unphosphorylated T2524 peptide; sites T2524.
The target in the next test is T1, human 14-3-3 isoform η (Homo sapiens, UniProt Q04917).
T1 construct: MBP (cleaved yes); made in house; host or cells: E. coli BL21DE3
T1 sequence (Q04917 whole entry, canonical isoform): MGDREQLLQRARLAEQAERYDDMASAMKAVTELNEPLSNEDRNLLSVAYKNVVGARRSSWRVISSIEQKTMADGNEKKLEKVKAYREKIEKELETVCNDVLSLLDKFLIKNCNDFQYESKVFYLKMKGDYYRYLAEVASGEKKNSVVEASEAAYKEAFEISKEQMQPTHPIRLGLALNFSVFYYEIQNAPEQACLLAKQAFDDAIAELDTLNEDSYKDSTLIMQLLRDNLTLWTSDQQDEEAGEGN
Briefly: Fluorescence polarization (FP) direct binding assay. Particulars: fluorescein-labeled peptide 1 nM. Here is the method: (§1) Human MBP-tagged 14-3-3 isoforms were expressed from pMAL2CX plasmids [[Kilisch et al. (2016)], [Yuan et al. (2003)]] in E. coli BL21DE3 cells. After induction with […] isopropyl-β-D-thiogalactoside, the protein was expressed for 4 h at room temperature. Cells were lysed in MBP-lysis buffer [50 mM Tris–HCl pH 7.5, 150 mM NaCl, 5 mM MgCl2, 1 mM PMSF, 1× cOmplete Protease Inhibitor EDTA-free (Roche)] using a French Pressure cell (FRENCH Press, Thermo, United States). Following centrifugation at 42,000 × g and 4°C for 30 min, the supernatant was transferred to a Maltose-agarose column (1.5 ml bed volume; New England Biolabs GmbH, Germany). Captured proteins were washed six times with 10 ml wash buffer (50 mM Tris–HCl pH 7.5, 150 mM NaCl, 5 mM MgCl2) prior to elution using wash buffer including 15 mM D-maltose. To remove the MBP tag, fusion proteins were incubated with Factor Xa (New England Biolabs GmbH, Germany), at a final concentration of 0.4 μg per 1 mg fusion protein for 24 h at RT following another 72 h at 4°C. Anion exchange chromatography was finally applied to separate residual MBP using a buffer gradient from 20 mM Tris pH 8 to 20 mM Tris pH 8 with 1 M NaCl. For this a RESOURCE Q column (GE Healthcare, United Kingdom) was utilized, employing an ÄKTApurifier (GE Healthcare, United Kingdom) or an NGC Quest Chromatography System (Bio-Rad Laboratories GmbH, Germany).
(§2) FP was used to determine binding affinities of different phosphorylated and non-phosphorylated peptides derived from LRRK2 sequences (Peps4LS GmbH, Germany) toward human 14-3-3 isoforms. Direct binding assays were performed and evaluated as previously described ([Muda et al., 2014]; [Manschwetus et al., 2019]). Briefly, both dilution series of 14-3-3 isoforms ranging from final concentrations of at least 5 μM down to picomolar concentrations and dilutions of the respective fluorescein-labeled peptide (final conc. 1 nM) were prepared in FP buffer (20 mM MOPS pH 7, 150 mM NaCl, 0.005% CHAPS). Subsequently, samples were mixed in 384-well microtiter plates as duplicates (BRAND plates, pureGrade, black, BRAND GmbH & Co. KG, Germany) in a 1:1 ratio and measured using a CLARIOstar plate reader (BMG LABTECH, Germany). Two protein preparations were utilized for at least two independent replications for all measurements while high affinity binding peptides were particularly measured with a minimum of three independent replications for statistical evaluation. Data was analyzed with GraphPad Prism 6.0 (GraphPad Software, San Diego, CA, United States) by plotting obtained FP signals (mPol) against the logarithmic 14-3-3 protein concentrations. Data points represent means ± standard error of mean (SEM) of duplicates. “Ctrl.” indicates the FP signal of fluorescein-labeled peptides without 14-3-3 protein. Sigmoidal dose-response fitting was performed to define KD-values.

The next test concerns the target T2, human 14-3-3 isoform θ (Homo sapiens, UniProt P27348).
T2 construct: MBP (cleaved yes); made in house; host or cells: E. coli BL21DE3
The test is described as above. The conditions noted are these: fluorescein-labeled peptide 1 nM. Here is the method: as §1, §2

Another test addresses T3, human 14-3-3 isoform σ (Homo sapiens, UniProt P31947).
T3 construct: MBP (cleaved yes); made in house; host or cells: E. coli BL21DE3
T3 sequence (P31947 1-248): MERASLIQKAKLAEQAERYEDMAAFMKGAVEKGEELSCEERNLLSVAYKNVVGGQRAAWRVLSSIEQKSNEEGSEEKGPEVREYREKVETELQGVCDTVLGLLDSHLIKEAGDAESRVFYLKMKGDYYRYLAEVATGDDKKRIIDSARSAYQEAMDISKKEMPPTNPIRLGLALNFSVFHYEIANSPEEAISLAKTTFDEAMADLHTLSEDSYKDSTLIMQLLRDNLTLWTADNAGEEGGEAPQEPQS
The description is as above. The conditions noted are these: fluorescein-labeled peptide 1 nM. Here is the method:
as §1, §2

Another test concerns the target T4, human 14-3-3 isoform ϵ (Homo sapiens, UniProt P62258).
T4 construct: MBP (cleaved yes); made in house; host or cells: E. coli BL21DE3
T4 sequence (P62258 1-255): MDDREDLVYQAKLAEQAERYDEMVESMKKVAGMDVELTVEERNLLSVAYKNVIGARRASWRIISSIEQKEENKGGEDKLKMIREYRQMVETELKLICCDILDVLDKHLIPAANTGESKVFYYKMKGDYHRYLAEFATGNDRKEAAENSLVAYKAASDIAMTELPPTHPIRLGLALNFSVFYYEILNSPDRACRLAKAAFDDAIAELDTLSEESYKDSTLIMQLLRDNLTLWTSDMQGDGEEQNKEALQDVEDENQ
The description is as above. The conditions noted are these: fluorescein-labeled peptide 1 nM. The method, then: as §1, §2

The target in another test is T5, human 14-3-3γ (Homo sapiens, UniProt P61981).
T5 construct: MBP (cleaved yes); made in house; host or cells: E. coli BL21DE3
T5 sequence (P61981 1-247): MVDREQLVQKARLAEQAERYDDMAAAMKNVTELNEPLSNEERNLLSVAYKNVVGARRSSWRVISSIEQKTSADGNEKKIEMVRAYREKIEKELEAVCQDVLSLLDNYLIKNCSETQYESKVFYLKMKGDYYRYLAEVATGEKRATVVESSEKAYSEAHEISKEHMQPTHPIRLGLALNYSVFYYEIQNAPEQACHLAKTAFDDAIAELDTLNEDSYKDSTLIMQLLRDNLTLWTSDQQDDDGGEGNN
Described as above. Particulars: dilution series of 14-3-3γ (at least 5 μM down to pM), fluorescein-labeled peptide 1 nM, FP buffer pH 7. Here is the method:
as §1, §2

Test [1] has as its system all seven human 14-3-3 isoforms. The test can be described thus: Fluorescence polarization (FP) direct binding assay, statements over all isoforms. The conditions noted are these: FP direct binding; all seven isoforms; fluorescein-labeled peptide 1 nM; FP buffer pH 7. Here is the method: as §1, §2
The target in another test is Q930R/pS935. Briefly: fluorescence polarisation; direct binding; dilution series of 14-3-3 isoform (at least 5 μM down to picomolar) mixed with 1 nM fluorescein-labelled peptide; 20 mM MOPS pH 7, 150 mM NaCl, 0.005% CHAPS; 384-well plates.
Another test concerns the target pS1444. The description is as above.
The target of test [2] is pS910/pS935. The test is described as above.
pS910/pS935, sequence (Q5S007 906-940): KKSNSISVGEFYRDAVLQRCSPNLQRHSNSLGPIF
Test [3] addresses pS910/pS935. The description is as above. The source holds these as a separate data set.
For the next test, the target named is T6, R1441C/pS1444 (R1441C (stands in the printed letters)).
T6 construct: LRRK2-derived peptide of the Roc domain with the familial PD mutation R1441C, phosphorylated at S1444; source: synthetic peptide (Peps4LS GmbH)
T6 peptide: fluorescein-LFNIKACAS[pS]SPVILVGT
The description is as above.

In test [4] the target is LRRK2 pS910/pS935 peptide (Homo sapiens, UniProt Q5S007).
LRRK2 pS910/pS935 peptide, sequence (Q5S007 whole entry): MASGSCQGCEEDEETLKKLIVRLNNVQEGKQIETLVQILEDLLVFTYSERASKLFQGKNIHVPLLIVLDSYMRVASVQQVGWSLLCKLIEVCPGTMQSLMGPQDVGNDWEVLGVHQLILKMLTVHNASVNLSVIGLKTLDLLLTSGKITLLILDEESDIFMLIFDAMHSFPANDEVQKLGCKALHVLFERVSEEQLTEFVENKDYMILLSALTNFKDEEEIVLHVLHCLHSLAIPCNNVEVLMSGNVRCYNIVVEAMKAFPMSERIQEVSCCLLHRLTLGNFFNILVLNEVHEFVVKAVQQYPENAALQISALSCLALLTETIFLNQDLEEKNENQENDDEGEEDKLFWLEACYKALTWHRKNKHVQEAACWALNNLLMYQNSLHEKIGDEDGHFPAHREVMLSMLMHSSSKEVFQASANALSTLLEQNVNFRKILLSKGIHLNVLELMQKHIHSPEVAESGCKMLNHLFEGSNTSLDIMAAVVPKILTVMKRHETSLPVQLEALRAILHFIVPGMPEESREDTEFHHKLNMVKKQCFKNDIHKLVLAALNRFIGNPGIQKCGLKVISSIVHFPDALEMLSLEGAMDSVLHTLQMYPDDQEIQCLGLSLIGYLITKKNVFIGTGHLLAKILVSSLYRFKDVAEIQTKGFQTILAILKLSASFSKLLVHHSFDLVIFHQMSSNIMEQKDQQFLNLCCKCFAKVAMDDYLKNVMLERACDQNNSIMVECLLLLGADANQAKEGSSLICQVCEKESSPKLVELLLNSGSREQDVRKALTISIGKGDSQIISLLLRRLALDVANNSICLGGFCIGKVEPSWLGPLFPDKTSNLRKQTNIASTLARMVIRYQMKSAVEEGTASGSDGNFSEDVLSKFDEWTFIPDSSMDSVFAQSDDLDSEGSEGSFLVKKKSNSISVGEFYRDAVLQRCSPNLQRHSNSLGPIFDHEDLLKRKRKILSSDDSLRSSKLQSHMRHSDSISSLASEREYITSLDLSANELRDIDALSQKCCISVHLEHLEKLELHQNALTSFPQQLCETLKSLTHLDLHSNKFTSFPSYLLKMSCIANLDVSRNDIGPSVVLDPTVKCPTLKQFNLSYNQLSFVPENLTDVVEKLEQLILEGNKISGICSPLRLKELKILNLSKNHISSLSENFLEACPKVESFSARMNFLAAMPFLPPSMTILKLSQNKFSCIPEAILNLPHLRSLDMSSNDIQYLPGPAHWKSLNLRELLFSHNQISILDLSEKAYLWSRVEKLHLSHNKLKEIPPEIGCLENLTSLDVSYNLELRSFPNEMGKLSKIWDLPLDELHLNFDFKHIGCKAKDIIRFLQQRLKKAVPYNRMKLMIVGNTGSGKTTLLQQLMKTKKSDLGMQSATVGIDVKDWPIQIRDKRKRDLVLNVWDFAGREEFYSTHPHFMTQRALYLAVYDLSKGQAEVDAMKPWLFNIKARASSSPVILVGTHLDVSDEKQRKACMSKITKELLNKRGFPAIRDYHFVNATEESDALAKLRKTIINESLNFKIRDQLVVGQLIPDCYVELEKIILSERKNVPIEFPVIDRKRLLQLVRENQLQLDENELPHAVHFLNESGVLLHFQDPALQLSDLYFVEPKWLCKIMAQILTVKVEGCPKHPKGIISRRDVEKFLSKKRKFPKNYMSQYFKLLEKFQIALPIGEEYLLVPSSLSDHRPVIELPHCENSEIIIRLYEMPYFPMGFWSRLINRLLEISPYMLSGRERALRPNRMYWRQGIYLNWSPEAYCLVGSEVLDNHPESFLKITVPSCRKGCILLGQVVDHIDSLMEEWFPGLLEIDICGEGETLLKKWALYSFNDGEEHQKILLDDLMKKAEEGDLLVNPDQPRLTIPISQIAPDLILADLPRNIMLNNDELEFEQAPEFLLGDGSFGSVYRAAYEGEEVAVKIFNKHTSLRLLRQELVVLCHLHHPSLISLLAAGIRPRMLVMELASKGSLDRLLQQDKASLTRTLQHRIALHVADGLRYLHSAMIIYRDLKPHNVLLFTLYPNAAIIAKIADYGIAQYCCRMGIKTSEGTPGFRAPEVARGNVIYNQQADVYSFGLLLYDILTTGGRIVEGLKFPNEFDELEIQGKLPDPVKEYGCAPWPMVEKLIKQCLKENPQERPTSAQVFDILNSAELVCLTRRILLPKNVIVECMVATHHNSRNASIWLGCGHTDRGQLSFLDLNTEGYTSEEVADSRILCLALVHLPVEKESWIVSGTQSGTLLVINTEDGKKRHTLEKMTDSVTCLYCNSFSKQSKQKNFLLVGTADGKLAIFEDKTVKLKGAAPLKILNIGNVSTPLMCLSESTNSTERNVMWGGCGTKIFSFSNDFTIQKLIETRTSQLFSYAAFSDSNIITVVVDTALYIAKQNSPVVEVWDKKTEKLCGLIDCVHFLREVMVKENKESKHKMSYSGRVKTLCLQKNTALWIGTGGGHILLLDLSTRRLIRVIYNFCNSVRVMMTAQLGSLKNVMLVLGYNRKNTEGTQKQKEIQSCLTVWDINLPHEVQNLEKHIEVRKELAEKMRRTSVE

Entries after “also recorded” stand apart in the source; their conditions may differ. Like-named read-outs stand apart in the source and are kept apart here.

One may read the Kd as the free concentration of one partner at which half of the binding sites on the other are occupied at equilibrium, for simple one-to-one binding. Lower therefore signals tighter binding.

T2 sequence (P27348 whole entry, canonical isoform): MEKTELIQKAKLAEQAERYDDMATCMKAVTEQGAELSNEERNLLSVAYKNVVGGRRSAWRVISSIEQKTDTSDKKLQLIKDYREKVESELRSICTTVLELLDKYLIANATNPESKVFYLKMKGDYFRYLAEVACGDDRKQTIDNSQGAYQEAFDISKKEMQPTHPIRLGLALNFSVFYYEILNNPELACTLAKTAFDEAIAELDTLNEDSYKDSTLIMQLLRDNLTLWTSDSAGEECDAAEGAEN

Regarding “LRRK2 (leucine-rich repeat kinase 2) C-terminus (from UniProt Q5S007) pT2524 peptide”, the “binding against the reference” value with 14-3-3β, in the test with 14-3-3γ, with 14-3-3ε, with 14-3-3ζ, in the test with 14-3-3η and in the test with 14-3-3θ was “gained” throughout. Moreover, the “binding against the reference” value in the test with 14-3-3σ is recorded as “gained”.
Turning to “SFLVKKKSNpSISVGEFYRD [pS910, fluorescein-labeled LRRK2-derived phosphopeptide covering pS910]”, the “Binding to 14-3-3 isoform η, in words” value on human 14-3-3 isoform η is “highest affinities, yet in a micromolar range”. The “Binding to 14-3-3 isoform θ, in words” value on human 14-3-3 isoform θ is given as “weakest binding”. For the same molecule, at human 14-3-3 isoform σ, the “Binding to 14-3-3 isoform σ, in words” value is given as “No binding”. Besides, the “Binding to 14-3-3 isoform ϵ, in words” value on human 14-3-3 isoform ϵ is on record as “No binding”. The “Binding to 14-3-3γ, in words” value on human 14-3-3γ is “micromolar binding affinity; also recorded: highest affinities, yet in a micromolar range”. For the same molecule, the “Binding to the human 14-3-3 isoforms, in words” value in test [1] is “micromolar affinities for the 14-3-3 isoforms except σ and ϵ; also recorded: low affinity”.
Consider “human 14-3-3 isoform γ (recombinant, MBP tag removed) (from UniProt P61981 1-247) (natural protein)”, for which the Kd in the test with Q930R/pS935 was found to be 11.1 nM; with pS1444 it was 106 nM; in the test with pS910/pS935 [2], 3.2 nM; in the test with pS910/pS935 [3] it was 4.8 nM. In the test with R1441C/pS1444, this molecule yielded a fold decrease in affinity against pS1444 above 30 fold.

B1: 14-3-3σ (protein)
chain: MERASLIQKAKLAEQAERYEDMAAFMKGAVEKGEELSCEERNLLSVAYKNVVGGQRAAWRVLSSIEQKSNEEGSEEKGPEVREYREKVETELQGVCDTVLGLLDSHLIKEAGDAESRVFYLKMKGDYYRYLAEVATGDDKKRIIDSARSAYQEAMDISKKEMPPTNPIRLGLALNFSVFHYEIANSPEEAISLAKTTFDEAMADLHTLSEDSYKDSTLIMQLLRDNLTLWTADNAGEEGGEAPQEPQS
modifications: pS910+pS935
Consider B1, for which the affinity in test [4], expressed as Kd, was 61 nM.
